Results: the domain aggregation screens of Martell et al. (2025)

Experiment: soluble fraction after stress (log2 fold change); higher = more stays soluble; pooled small domains, quantitative proteomics
Conditions: stress: 75 degC
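Also: 20 min heating vs room temperature control held 20 min.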

Sequence | soluble fraction (log2)
HMKGIHDYITKDGLRVVKVHYSADPDKDVTTVEGKKWMAKALLGYPGGLEGAKWRREMEIDFNA | -0.167
HMAEKNALWEEDAVYAADSSALARDGYDAIVRTDKGGKKGYLVVGTGGRERFMPLQTLVMLGYLKK | -0.433
HMSYIGEEKAKSIAVSNVKGAGTNNVVKVEFDYDDGRAVYEVKVVYNAMEYEFEIDASNGKILSRDAESIY | -1.45
HMNTSSVTVHYQDEAGKSLADTVTLTGKVGETYSSEQKKITGYNFKEVRGNPKGQFTTEAQTVTYVYTQAA | 0.211
HMYIENIGDYLKSHDIKPSYQRIKVFEYLMQHKNHPTVDMIYKSLVDEIPTLSKTTVYNTLNLFIEKQI | -1.55
HMGDRRSVFEQSVLDAIKSLVKQGELATTKAISDHIGTNYQGNVSRAITALLADNKIKKLPKEGVLQPYEA | -0.0172
HMKFTELEQLMLKREINTLADIARVLKTTPQAVSNWKARDQIPYHIVAKINASINKDSNDSSLSI | -0.328
HMLTANPEEVVNRLTSAGEVGVRPLLDVDDPINAISTLLAIREDVYKQFAQFDTVGKSPSEIAHEIDDFL | 0.11
HMSVTIDAGGKVYLQESEIADDQLVPRLVAISNNGYDKPIYLRADKTVGYGRVAEVMSLLNAAGFTKLVLV | -0.513
HMDLSLQTFNELKTELTNNKITIDQFSEKINEFDITSDIFEISRELFLDDTLSLEDYLVVIENVLIN | -0.327
HMKKEDFLEILRDYLKKGFSEDEVMDILRDYEEYFVDGIIEGKSEIEIIQSLGSPKEIANELLAES | -0.631
HMHGYLSDPAARLIRARRKTLSIRITQEGNLEIRAPLGMPKGEIEAFLKEKAQWIETHRAKVLAEYA | -2.84
HMNELVEATITTQTGRLDKVLTTIFPQYSRSQIQQLLEQGNILVNETLQKGKYKVKAGDKISLTEPAIKE | 0.331
HMGNSRNDQDLQTQIIKILAEGPASSRTLIETLTIEDEAALLKTLKRLLMNKKISLTPSNLYKL | -1.06
HMGMDALIGRRVFVSEEILPGDTGGRMAVDGDSWRAISVGTASNIPAGTEVRIRGHQSLVLEVEP | -0.169
HMKPVPPLNGTSLRDLALGYAGRYATTAARLKHYLQRKLRERGWGGEDEPDLDGLVARLVELGYVNDEVF | -0.704
HMGGKYKGVIIGHLIDKTLRYNELQKLISHATPKMLIQQLKELEADGIIQRKLYPVVPPKTEYSLTERG | -0.973
HMNRTKYYDFEGHPAKVVRLTLPVYLNKIGDEVVVYDSQKFAREASPISESQYNRMVAEIFQP | -0.233
HMHNSQTIIDNIKRIANEQNISLSKLAVISGLGKNTITSMTAKTNIKIETLTAIAKSLNVSIHDLTGE | -2.64

Sequence | soluble fraction (log2)
HMETKPTELMLDVHKLRIGMFVYLDLGWMDHPFPLNRFKISTNAQIEQIKGLRLKQVKVMTALSDPASLL | -4.91
HMLKLEDIKKDAQVKGIVDGQIVRIVTVEPIGDHALTVYYKDHQGQFAERMLFRSDELNLELATA | -0.244
HMEYYWHQLKGLEVVNTRGESLGRVRRLLETGANDVLVLEGEQERLIPYVPDTIKQVDLAKGLIEVAWDRD | -0.17
HMTDTDVLSSRLSALSSGRTSAVRLRDGVLSLVLDVGGLSIEARKAMTTAIESTARATPGVEAVRIAET | -0.479
HMENEIFVPKVFMDWYNKVDKSIKVFKAFNLIEKETDPRLKEWVEDNQDEFAKIWLGQLLPVV | -0.155
HMQLKKDTILSYIEEKLIDSYNSNKGFTTQEISVALNMQRTNVSAILNNLVKENKLVKTKGKPVRYFLSG | -0.636
HMGFEALRSRHRITAREMEVLQHMLAGRSNAEIGHTLGLSERTVKTHITSIFNKLGVDSRAQLGYMLK | -1.87
HMGKELSTVVVPDLTGLSVLEARNVLTKVGLQLTPSGAGIAFKQIPTPGTRLTLGATVTVYFVATGY | -1.47
HMKVNQFEVEGNQRYSTEEIAKASGVSKGDNLFLVNKTETARKLLDELAYVRSVNIKRKLPDTLVITVAE | -0.032
HMNIDQAFISDLERMIMPDISKYELMDIISIMENSGFTIKVEGTGNEVRQVIKPGSKLKKGQKIKIKL | -2.03
HMAKINFTSDAIDIGMVTRNDIEMLSFYQNVLGLTKDMEIPFPGLGVVNKLSFGSGFIKILVL | 0.0804
HMSNEEEIEGLVSKVLDNNPEIVERIRSGEDKLISYLVGEVMKQSSSSLNPGIVKEIIVNKTI | 0.091
HMDVNAQAGYDKLQSNQLDGARHDYEQALKTDPNNVDTLLALAAIAQRQGRSADADGYRQRAIDAD | -0.378
HMAPQQARAAKTRVKLLDAAATVVRRDGIQAMTLARVAEEAGVSKGGLLHHFGSKEELVTGMLEQ | -0.21
HMLISDENMLRDLVQAVLDENPKSVSDYKSGKTKAFGFLVGQTMKAVKGQADPMLVNKILTELLN | 0.236
HMLGRPDMSPIPEGSRNNDLHAWGFGRLANHPDNKRQIEADFFERGRISGLGDAEIRASWNSILRQLGHQ | 0.0693
HMTKGFSIQDISLSKSTMTFLQQNKITDLASLLSMSKSQIEGMKGFKPKMIQEIEKNLDKVGLVLAQD | -0.243
HMTNTDALINRAAKVVEEINPDKNTGRVSIDGDLWRAKSSSGELIEQNKQVIVISIESTIVTVKI | -0.228
HMTKIKAIFFDIDGTIRSFKTKTIPENTANTLKKLKEQGIKIFIATGRAPFHTTFLNDLLDFKFDGYITIN | -0.659
